Paper doi:10.1101/2023.07.17.549284

Target: T1, ACADVL (mouse (endogenous in heart and kidney)), P50544
T1 chain: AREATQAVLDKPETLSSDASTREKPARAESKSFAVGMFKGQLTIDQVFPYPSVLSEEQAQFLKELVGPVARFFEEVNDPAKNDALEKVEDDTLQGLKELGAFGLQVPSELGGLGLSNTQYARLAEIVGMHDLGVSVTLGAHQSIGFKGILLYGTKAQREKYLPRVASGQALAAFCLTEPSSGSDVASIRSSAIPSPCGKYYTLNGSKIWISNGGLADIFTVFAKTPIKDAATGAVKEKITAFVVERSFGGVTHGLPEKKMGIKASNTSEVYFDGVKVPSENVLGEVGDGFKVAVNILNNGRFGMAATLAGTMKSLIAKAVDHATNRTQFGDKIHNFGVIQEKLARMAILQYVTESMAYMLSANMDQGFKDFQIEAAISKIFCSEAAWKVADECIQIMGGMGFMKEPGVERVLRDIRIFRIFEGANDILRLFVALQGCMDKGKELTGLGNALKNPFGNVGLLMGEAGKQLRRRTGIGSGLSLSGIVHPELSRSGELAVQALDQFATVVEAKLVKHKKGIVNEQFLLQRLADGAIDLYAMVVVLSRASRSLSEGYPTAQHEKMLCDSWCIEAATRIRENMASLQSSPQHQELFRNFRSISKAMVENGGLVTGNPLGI
Assay: cryo-EM structure
Settings: remark: other sources report otherwise

B1: ACADVL, P50544 42-656 (natural protein)
chain: T1 chain
stoichiometry N: 2
